Data: patent publication US20130123471A1

What was measured:
[1] = biological target: anti-CEA humanized chimeric antibody; assay: direct ELISA: chimeric antibody (100 ng/ml) on coated CEA, detected with goat-anti-mouse IgG Fc-HRP (background level)
[2] = biological target: human CEA antigen (human) (UniProt P06731); assay: ELISA, CEA coating, sample 100 ng/ml, goat-anti-human IgG Fc-HRP (background level)
[3] = biological target: human CEA antigen (human) (UniProt P06731); assay: direct ELISA on coated CEA, 100 ng/ml, goat-anti-human IgG Fc-HRP secondary (background level)
[4] = biological target: human CEA antigen (human) (UniProt P06731); assay: competitive inhibition ELISA on coated CEA, 80 ng human IgG1 against 2.5 ng parent mouse antibody
[5] = biological target: human CEA antigen (human) (UniProt P06731); assay: direct ELISA on coated CEA, 100 ng/ml, goat-anti-mouse IgG Fc-HRP secondary (background level; this secondary does not detect human Ig)

Chain of UniProt P06731 (P06731 35-685 limits assumed): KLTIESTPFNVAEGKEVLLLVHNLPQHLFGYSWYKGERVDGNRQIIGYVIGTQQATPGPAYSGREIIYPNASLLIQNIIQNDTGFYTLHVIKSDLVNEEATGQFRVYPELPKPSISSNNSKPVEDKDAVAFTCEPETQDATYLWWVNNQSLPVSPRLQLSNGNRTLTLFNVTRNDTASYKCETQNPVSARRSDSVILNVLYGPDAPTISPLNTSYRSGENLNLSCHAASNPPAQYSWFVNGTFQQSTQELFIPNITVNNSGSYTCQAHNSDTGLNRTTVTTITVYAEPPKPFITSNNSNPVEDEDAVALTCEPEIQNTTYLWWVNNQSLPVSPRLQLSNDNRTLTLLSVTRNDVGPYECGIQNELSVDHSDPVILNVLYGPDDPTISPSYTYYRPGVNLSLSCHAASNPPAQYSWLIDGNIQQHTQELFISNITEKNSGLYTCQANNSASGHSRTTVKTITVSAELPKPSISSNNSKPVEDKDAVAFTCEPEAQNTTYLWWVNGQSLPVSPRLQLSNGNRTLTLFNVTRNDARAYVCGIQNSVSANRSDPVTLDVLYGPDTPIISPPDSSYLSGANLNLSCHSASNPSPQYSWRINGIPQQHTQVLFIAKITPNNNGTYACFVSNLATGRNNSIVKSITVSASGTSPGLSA
Chain of anti-CEA humanized chimeric antibody (VH, as listed by the source, chain 1 of 2): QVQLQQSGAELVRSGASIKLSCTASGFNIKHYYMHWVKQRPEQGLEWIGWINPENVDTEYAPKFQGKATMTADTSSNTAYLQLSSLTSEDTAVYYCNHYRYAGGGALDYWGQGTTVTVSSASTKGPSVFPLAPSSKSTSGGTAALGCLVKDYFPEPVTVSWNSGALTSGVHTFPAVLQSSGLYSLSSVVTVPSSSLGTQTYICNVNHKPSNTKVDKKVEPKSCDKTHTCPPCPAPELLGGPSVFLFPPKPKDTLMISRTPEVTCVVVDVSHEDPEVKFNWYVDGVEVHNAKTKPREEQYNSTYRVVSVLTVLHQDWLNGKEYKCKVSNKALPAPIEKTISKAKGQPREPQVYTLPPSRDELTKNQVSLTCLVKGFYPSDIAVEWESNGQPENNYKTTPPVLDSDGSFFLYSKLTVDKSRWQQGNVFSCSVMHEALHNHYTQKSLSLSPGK
Chain of anti-CEA humanized chimeric antibody (VL, as listed by the source, chain 2 of 2): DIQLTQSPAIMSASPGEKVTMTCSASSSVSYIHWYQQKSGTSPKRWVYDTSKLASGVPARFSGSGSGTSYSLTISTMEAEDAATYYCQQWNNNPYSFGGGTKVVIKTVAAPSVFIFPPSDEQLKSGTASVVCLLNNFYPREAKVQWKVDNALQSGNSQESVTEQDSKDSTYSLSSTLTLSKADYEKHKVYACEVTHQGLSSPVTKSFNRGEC

Row | OD490 [1] [OD490] | OD490 [2] [OD490] | OD490 [3] [OD490] | Inhibition rate (%) [4] [%] | OD490 [5] [OD490] | Substance
1 | 0.072 | – | – | – | – | goat-anti-mouse IgG Fc fragment-HRP (antibody)
2 | – | 0.072 | 0.079 | -12.8 | 0.077 | irrelevant antibody human IgG1
